Ten molecules from US20250206797A1 (BEIJING TUO JIE BIOPHARMACEUTICAL, published 2025) can be followed below.

Common to all, as to test: cell-based or functional assay
Assay [1] has as its target insulin receptor of C2C12 mouse myoblasts (mouse, UniProt P15208 28-1372).
Assay [2] addresses T1, IGF-IR (human, UniProt P08069 31-1367).
Assay [3] addresses T1, IGF-IR. This is another data set of the same source.

insulin receptor of C2C12 mouse myoblasts, sequence (P15208 28-1372): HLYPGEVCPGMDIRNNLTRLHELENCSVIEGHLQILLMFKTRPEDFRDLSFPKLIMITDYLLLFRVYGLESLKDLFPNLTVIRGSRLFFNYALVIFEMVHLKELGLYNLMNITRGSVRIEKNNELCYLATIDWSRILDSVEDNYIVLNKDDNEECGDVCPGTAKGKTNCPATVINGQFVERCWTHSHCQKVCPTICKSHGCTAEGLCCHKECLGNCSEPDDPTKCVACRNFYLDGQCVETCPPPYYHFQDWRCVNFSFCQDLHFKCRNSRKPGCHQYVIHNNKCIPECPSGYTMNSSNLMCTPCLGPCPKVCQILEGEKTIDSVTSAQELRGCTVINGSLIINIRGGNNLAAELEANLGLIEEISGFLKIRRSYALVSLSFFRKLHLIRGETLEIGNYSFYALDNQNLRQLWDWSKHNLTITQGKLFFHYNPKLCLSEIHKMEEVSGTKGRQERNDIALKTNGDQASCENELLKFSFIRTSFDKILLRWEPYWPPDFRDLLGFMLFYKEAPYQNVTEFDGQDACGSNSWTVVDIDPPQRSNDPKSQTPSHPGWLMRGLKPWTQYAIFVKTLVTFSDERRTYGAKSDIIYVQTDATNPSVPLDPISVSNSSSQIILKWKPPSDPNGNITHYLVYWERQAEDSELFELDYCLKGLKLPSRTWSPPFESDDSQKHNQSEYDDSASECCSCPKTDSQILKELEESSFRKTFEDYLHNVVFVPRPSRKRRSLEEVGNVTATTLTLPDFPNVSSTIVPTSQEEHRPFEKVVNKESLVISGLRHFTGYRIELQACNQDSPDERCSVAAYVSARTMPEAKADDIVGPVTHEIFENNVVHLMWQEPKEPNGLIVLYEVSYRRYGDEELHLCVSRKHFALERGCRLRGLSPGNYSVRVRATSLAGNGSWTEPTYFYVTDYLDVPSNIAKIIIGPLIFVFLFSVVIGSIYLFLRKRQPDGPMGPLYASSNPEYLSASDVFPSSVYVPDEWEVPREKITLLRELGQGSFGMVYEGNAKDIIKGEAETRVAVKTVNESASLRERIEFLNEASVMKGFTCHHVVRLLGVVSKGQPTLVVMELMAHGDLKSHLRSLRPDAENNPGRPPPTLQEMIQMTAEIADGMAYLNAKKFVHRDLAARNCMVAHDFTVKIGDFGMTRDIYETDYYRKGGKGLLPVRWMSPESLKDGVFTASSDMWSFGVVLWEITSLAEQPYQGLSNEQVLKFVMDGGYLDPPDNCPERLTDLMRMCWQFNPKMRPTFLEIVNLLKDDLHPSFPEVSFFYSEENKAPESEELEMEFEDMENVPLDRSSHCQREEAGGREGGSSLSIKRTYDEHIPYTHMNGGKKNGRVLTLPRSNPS

B1: fusion protein 5 (insulin analog 1 + L2 + IgG2 Fc1) (Fc fusion)
chain: FVNQHLCGEHLVEALYLVCGERGFHYGGGGGGSGGGGGIVEQCCESICSLEQLENYCGGGGGQGGGGQGGGGQGGGGQGGGGQECPPCPAPPVAGPSVFLFPPKPKDTLMISRTPEVTCVVVDVSHEDPEVQFNWYVDGVEVHNAKTKPREEQFNSTFRVVSVLTVVHQDWLNGKEYKCKVSNKGLPAPIEKTISKTKGQPREPQVYTLPPSREEMTKNQVSLTCLVKGFYPSDIAVEWESNGQPENNYKTTPPMLDSDGSFFLYSKLTVDKSRWQQGNVFSCSVMHEALHNHYTQKSLSLSPG
In the case of B1, the “AKT phosphorylation activity (EC50) in C2C12 mouse myoblasts (HTRF phospho-S473)” value (shortened to “AKT phosphorylation activity (EC50)”) in assay [1] was 320 nM.

B2: fusion protein 7 (insulin analog 1 + L2 + IgG2 Fc1) (Fc fusion)
chain: FVNQHLCGEHLVEALYLVCGERGFHYGGGGGGSGGGGGIVEQCCESICSLEQLENYCGPGPQPGPQPGPQPGPQPGPQPGPQPGPQPGPQECPPCPAPPVAGPSVFLFPPKPKDTLMISRTPEVTCVVVDVSHEDPEVQFNWYVDGVEVHNAKTKPREEQFNSTFRVVSVLTVVHQDWLNGKEYKCKVSNKGLPAPIEKTISKTKGQPREPQVYTLPPSREEMTKNQVSLTCLVKGFYPSDIAVEWESNGQPENNYKTTPPMLDSDGSFFLYSKLTVDKSRWQQGNVFSCSVMHEALHNHYTQKSLSLSPG
For the molecule B2, the “AKT phosphorylation activity (EC50)” value in assay [1] was determined as 280 nM.

B3: LY3209590 (Fc fusion)
chain: FVNQHLCGSHLVEALELVCGERGFHYGGGGGGSGGGGGIVEQCCTSTCSLDQLENYCGGGGGQGGGGQGGGGQGGGGGECPPCPAPPVAGPSVFLFPPKPKDTLMISRTPEVTCVVVDVSHEDPEVQFNWYVDGVEVHNAKTKPREEQFNSTFRVVSVLTVVHQDWLNGKEYKCKVSNKGLPAPIEKTISKTKGQPREPQVYTLPPSREEMTKNQVSLTCLVKGFYPSDIAVEWESNGQPENNYKTTPPMLDSDGSFFLYSKLTVDKSRWQQGNVFSCSVMHEALHNHYTQKSLSLSPG
Take B3: the “AKT phosphorylation activity (EC50)” value in assay [1] came out at 194 nM. Further, in the assay with IGF-IR [2], the “Activity in promoting MCF-7 proliferation (EC50), CellTiter-Glo” value came out at 31.2 nM.

B4: fusion protein 9 (insulin analog 6 + L2 + IgG2 Fc1) (Fc fusion)
chain: FVNQHLCGEHLVEALYLVCGERGFHYGGGGGGSGGGGGIVEQCCESICSLEQLENYCNHGGGQGGGGQGGGGQGGGGGECPPCPAPPVAGPSVFLFPPKPKDTLMISRTPEVTCVVVDVSHEDPEVQFNWYVDGVEVHNAKTKPREEQFNSTFRVVSVLTVVHQDWLNGKEYKCKVSNKGLPAPIEKTISKTKGQPREPQVYTLPPSREEMTKNQVSLTCLVKGFYPSDIAVEWESNGQPENNYKTTPPMLDSDGSFFLYSKLTVDKSRWQQGNVFSCSVMHEALHNHYTQKSLSLSPG
B4: the “AKT phosphorylation activity (EC50)” value in assay [1] stood at 133 nM.

B5: fusion protein 1 (insulin analog 1 + L2 + IgG2 Fc1) (Fc fusion)
chain: FVNQHLCGEHLVEALYLVCGERGFHYGGGGGGSGGGGGIVEQCCESICSLEQLENYCGGGGGQGGGGQGGGGQGGGGGECPPCPAPPVAGPSVFLFPPKPKDTLMISRTPEVTCVVVDVSHEDPEVQFNWYVDGVEVHNAKTKPREEQFNSTFRVVSVLTVVHQDWLNGKEYKCKVSNKGLPAPIEKTISKTKGQPREPQVYTLPPSREEMTKNQVSLTCLVKGFYPSDIAVEWESNGQPENNYKTTPPMLDSDGSFFLYSKLTVDKSRWQQGNVFSCSVMHEALHNHYTQKSLSLSPG
Turning to B5, the “AKT phosphorylation activity (EC50)” value in assay [1] amounted to 490 nM. Besides, in the assay with IGF-IR [2], the “Activity in promoting MCF-7 proliferation (EC50), CellTiter-Glo” value is 280 nM.

B6: fusion protein 2 (insulin analog 2 + L2 + IgG2 Fc1) (Fc fusion)
chain: FVNQHLCGSHLVEALYLVCGERGFHYGGGGGGSGGGGGIVEQCCHSICSLEQLENYCGGGGGQGGGGQGGGGQGGGGGECPPCPAPPVAGPSVFLFPPKPKDTLMISRTPEVTCVVVDVSHEDPEVQFNWYVDGVEVHNAKTKPREEQFNSTFRVVSVLTVVHQDWLNGKEYKCKVSNKGLPAPIEKTISKTKGQPREPQVYTLPPSREEMTKNQVSLTCLVKGFYPSDIAVEWESNGQPENNYKTTPPMLDSDGSFFLYSKLTVDKSRWQQGNVFSCSVMHEALHNHYTQKSLSLSPG
Regarding B6, the “EC50 for the activity in promoting MCF-7 proliferation, relative to LY3209590” value in the assay with IGF-IR [3] is ~2 fold of the EC50 of LY3209590. Besides, the “AKT phosphorylation activity (EC50)” value in assay [1] is 90.5 nM.

B7: fusion protein 8 (insulin analog 1 + L2 + IgG2 Fc1) (Fc fusion)
chain: FVNQHLCGEHLVEALYLVCGERGFHYGGGGGGSGGGGGIVEQCCESICSLEQLENYCGGGGGAGGGGAGGGGAGGGGGECPPCPAPPVAGPSVFLFPPKPKDTLMISRTPEVTCVVVDVSHEDPEVQFNWYVDGVEVHNAKTKPREEQFNSTFRVVSVLTVVHQDWLNGKEYKCKVSNKGLPAPIEKTISKTKGQPREPQVYTLPPSREEMTKNQVSLTCLVKGFYPSDIAVEWESNGQPENNYKTTPPMLDSDGSFFLYSKLTVDKSRWQQGNVFSCSVMHEALHNHYTQKSLSLSPG
B7: the “AKT phosphorylation activity (EC50)” value in assay [1] turned out to be 544 nM.

B8: fusion protein 4 (insulin analog 4 + L2 + IgG2 Fc1) (Fc fusion)
chain: FVKQHLCGEHLVEALYLVCGERGFHYGGGGGGSGGGGGIVEQCCESICSLEQLENYCGGGGGQGGGGQGGGGQGGGGGECPPCPAPPVAGPSVFLFPPKPKDTLMISRTPEVTCVVVDVSHEDPEVQFNWYVDGVEVHNAKTKPREEQFNSTFRVVSVLTVVHQDWLNGKEYKCKVSNKGLPAPIEKTISKTKGQPREPQVYTLPPSREEMTKNQVSLTCLVKGFYPSDIAVEWESNGQPENNYKTTPPMLDSDGSFFLYSKLTVDKSRWQQGNVFSCSVMHEALHNHYTQKSLSLSPG
As for B8, the “AKT phosphorylation activity (EC50)” value in assay [1] was determined as 565 nM.

B9: fusion protein 3 (insulin analog 3 + L2 + IgG2 Fc1) (Fc fusion)
chain: FVNQHLCGSHLVEALHLVCGERGFHYGGGGGGSGGGGGIVEQCCTSICSLEQLENYCNGGGGQGGGGQGGGGQGGGGGECPPCPAPPVAGPSVFLFPPKPKDTLMISRTPEVTCVVVDVSHEDPEVQFNWYVDGVEVHNAKTKPREEQFNSTFRVVSVLTVVHQDWLNGKEYKCKVSNKGLPAPIEKTISKTKGQPREPQVYTLPPSREEMTKNQVSLTCLVKGFYPSDIAVEWESNGQPENNYKTTPPMLDSDGSFFLYSKLTVDKSRWQQGNVFSCSVMHEALHNHYTQKSLSLSPG
On to B9, for which the “AKT phosphorylation activity (EC50)” value in assay [1] is 28.6 nM.

B10: fusion protein 6 (insulin analog 5 + L2 + IgG2 Fc1) (Fc fusion)
chain: FVNQHLCGEHLVEALYLVCGERGFHYGGGGGSGGGGGIVEQCCESICSLEQLENYCGGGGGQGGGGQGGGGQGGGGGECPPCPAPPVAGPSVFLFPPKPKDTLMISRTPEVTCVVVDVSHEDPEVQFNWYVDGVEVHNAKTKPREEQFNSTFRVVSVLTVVHQDWLNGKEYKCKVSNKGLPAPIEKTISKTKGQPREPQVYTLPPSREEMTKNQVSLTCLVKGFYPSDIAVEWESNGQPENNYKTTPPMLDSDGSFFLYSKLTVDKSRWQQGNVFSCSVMHEALHNHYTQKSLSLSPG
Take B10: the “AKT phosphorylation activity (EC50)” value in assay [1] amounted to 456 nM.
